Laboratory results reported in paper PMC9482650, “Quantitative fragmentomics allow affinity mapping of interactomes” (Nature Communications, 2022).

How the values were obtained:
Test in all cases: holdup assay
Design in all cases: key: below the threshold = too weak to quantify, mostly under pKd 3.1 to 4
FRMPD2_2, Q68DX3 = target: FRMPD2_2, Q68DX3
GOPC, Q9HD26 = target: GOPC, Q9HD26
PCLO, Q9Y6V0 = target: T1, PCLO, Q9Y6V0
T1 sequence (Q9Y6V0 4491-4600, limits assumed, looked up): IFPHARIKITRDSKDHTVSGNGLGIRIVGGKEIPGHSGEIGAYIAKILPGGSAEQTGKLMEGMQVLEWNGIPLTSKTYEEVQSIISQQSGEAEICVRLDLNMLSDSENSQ

IL16_4, Q14005 = target: IL16_4, Q14005
Sequence of IL16_4, Q14005 (Q14005 1229-1329): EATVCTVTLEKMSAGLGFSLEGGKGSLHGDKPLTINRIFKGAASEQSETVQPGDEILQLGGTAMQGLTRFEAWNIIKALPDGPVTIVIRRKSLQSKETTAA

LIN7B, Q9HAP6 = target: T2, LIN7B, Q9HAP6
T2 sequence (Q9HAP6 88-185, limits assumed, looked up): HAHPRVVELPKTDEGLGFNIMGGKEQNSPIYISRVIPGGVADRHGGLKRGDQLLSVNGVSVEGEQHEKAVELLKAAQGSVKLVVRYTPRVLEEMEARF

PDZD2_2, O15018 = target: T3, PDZD2_2, O15018
T3 sequence (O15018 329-429, limits assumed, looked up): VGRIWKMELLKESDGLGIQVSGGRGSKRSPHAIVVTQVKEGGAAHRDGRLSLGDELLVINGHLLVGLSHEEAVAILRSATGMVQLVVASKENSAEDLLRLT

SNTG1, Q9NSN8 = target: T4, SNTG1, Q9NSN8
T4 sequence (Q9NSN8 52-150, limits assumed, looked up): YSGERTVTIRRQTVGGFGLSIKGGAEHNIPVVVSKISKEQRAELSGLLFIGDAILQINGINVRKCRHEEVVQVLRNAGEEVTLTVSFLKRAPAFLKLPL

MAGI2_3, Q86UL8 = target: MAGI2_3, Q86UL8
Sequence of MAGI2_3, Q86UL8 (Q86UL8 600-682): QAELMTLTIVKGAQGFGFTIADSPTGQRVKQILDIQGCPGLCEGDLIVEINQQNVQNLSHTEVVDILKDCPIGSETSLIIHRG

DLG4_2, P78352 = target: DLG4_2, P78352
Sequence of DLG4_2, P78352 (P78352 155-259): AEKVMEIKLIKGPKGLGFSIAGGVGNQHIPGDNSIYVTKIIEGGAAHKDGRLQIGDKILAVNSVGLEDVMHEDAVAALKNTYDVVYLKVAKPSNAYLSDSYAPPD

HTRA3, P83110 = target: T5, HTRA3, P83110
T5 sequence (P83110 354-453, limits assumed, looked up): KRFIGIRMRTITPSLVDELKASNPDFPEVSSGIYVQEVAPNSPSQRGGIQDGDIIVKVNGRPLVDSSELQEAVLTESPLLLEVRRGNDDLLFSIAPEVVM

HTRA2, O43464 = target: HTRA2, O43464
Sequence of HTRA2, O43464 (O43464 355-458): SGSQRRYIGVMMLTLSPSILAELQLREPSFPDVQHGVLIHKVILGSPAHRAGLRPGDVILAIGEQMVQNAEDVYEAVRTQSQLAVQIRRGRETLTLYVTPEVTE

SCRIB_3, Q14160 = target: SCRIB_3, Q14160
Sequence of SCRIB_3, Q14160 (Q14160 999-1103): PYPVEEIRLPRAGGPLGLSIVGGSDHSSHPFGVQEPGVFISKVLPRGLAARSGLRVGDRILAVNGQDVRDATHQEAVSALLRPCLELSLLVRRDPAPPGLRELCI

GRIP2_4, Q9C0E4 = target: GRIP2_4, Q9C0E4
Sequence of GRIP2_4, Q9C0E4 (Q9C0E4 446-548): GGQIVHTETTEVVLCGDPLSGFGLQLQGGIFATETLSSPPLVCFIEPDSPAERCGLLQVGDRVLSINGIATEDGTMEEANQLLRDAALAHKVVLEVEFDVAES

LNX1_1, Q8TBB1 = target: LNX1_1, Q8TBB1
Sequence of LNX1_1, Q8TBB1 (Q8TBB1 261-371): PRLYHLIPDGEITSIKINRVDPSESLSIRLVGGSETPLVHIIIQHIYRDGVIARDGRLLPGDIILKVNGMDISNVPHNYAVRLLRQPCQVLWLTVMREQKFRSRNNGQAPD

FRMPD2_1, Q68DX3 = target: FRMPD2_1, Q68DX3
Sequence of FRMPD2_1, Q68DX3 (Q68DX3 770-861): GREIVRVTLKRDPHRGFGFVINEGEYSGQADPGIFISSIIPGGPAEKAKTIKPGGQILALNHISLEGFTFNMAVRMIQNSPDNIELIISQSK

Inadl_1, Q8NI35 = target: Inadl_1, Q8NI35
Sequence of Inadl_1, Q8NI35 (Q8NI35 113-229): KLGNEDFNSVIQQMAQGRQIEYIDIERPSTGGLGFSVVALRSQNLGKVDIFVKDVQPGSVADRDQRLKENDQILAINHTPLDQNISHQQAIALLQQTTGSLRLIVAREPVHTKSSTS

PDLIM1, O00151 = target: PDLIM1, O00151
Sequence of PDLIM1, O00151 (O00151 1-87): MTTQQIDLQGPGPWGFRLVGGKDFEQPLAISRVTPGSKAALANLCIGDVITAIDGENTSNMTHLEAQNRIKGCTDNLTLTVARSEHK

Inadl_6, Q8NI35 = target: Inadl_6, Q8NI35
Sequence of Inadl_6, Q8NI35 (Q8NI35 1058-1167): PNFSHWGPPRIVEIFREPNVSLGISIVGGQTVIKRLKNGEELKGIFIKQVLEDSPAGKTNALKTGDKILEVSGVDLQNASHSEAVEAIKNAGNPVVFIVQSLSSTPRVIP

TJP2_1, Q9UDY2 = target: TJP2_1, Q9UDY2
Sequence of TJP2_1, Q9UDY2 (Q9UDY2 24-128): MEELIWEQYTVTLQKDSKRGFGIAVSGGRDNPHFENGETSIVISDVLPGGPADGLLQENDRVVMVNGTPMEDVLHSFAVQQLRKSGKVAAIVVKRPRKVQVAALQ

TX1BP3, O14907 = target: T6, TX1BP3, O14907
T6 sequence (O14907 10-122, limits assumed, looked up): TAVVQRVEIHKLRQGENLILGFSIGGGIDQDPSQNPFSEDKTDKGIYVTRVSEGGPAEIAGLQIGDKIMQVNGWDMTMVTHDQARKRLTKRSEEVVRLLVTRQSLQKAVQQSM

LAP2, Q96RT1 = target: LAP2, Q96RT1
Sequence of LAP2, Q96RT1 (Q96RT1 other isoform, or with tags, fused parts or gaps): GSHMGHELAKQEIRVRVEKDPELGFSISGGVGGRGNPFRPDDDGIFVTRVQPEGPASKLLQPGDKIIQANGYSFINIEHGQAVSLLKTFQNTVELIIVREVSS

TJP1_3, Q07157 = target: TJP1_3, Q07157
Sequence of TJP1_3, Q07157 (Q07157 416-512): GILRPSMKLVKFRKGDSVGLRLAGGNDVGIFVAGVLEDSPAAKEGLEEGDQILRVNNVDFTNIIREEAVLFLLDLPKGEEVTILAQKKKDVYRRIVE

Inadl_9, Q8NI35 = target: Inadl_9, Q8NI35
Sequence of Inadl_9, Q8NI35 (Q8NI35 1530-1615): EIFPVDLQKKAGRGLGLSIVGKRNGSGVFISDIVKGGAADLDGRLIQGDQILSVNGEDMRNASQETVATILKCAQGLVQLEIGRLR

DLG3_1, Q92796 = target: T7, DLG3_1, Q92796
T7 sequence (Q92796 125-227, limits assumed, looked up): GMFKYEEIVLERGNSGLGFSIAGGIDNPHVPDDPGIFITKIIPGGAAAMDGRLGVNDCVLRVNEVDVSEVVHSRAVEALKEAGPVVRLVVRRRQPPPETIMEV

DLG4_3, P78352 = target: DLG4_3, P78352
Sequence of DLG4_3, P78352 (P78352 306-403): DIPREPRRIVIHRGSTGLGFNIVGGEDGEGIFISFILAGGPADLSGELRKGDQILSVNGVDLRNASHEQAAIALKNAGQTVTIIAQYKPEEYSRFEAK

NHERF4_2, Q86UT5 = target: NHERF4_2, Q86UT5
Sequence of NHERF4_2, Q86UT5 (Q86UT5 220-308): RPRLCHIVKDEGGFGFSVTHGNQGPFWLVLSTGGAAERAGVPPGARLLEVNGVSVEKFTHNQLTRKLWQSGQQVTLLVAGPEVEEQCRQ

RAPGEF6, Q8TEU7 = target: T8, RAPGEF6, Q8TEU7
T8 sequence (Q8TEU7 525-625, limits assumed, looked up): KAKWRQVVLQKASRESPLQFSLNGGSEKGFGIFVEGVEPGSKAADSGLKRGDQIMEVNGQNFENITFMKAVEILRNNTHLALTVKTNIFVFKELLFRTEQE

TIAM2, Q8IVF5 = target: T9, TIAM2, Q8IVF5
T9 sequence (Q8IVF5 885-986, limits assumed, looked up): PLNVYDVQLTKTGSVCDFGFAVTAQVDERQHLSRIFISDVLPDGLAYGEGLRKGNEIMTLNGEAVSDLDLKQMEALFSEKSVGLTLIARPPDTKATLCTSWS

[1] = plain residues with an end cap or a label only (N-terminal biotin on a linker: ado-ado)
[2] = plain residues with an end cap or a label only (N-terminal biotin on a linker: ahx)

Sequence of FRMPD2_2, Q68DX3 (Q68DX3 944-1038): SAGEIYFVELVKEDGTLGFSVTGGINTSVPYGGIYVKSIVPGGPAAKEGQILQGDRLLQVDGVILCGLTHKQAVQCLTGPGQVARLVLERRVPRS

B1: PTPRG, P23470 (peptide)
chain: DPAESMESLV
- pKd (FRMPD2_2, Q68DX3; [1]): 4.54
- pKd (GOPC, Q9HD26; [1]): below the threshold
- pKd (PCLO, Q9Y6V0; [1]): below the threshold
- pKd (IL16_4, Q14005; [1]): below the threshold
- pKd (LIN7B, Q9HAP6; [1]): below the threshold
- pKd (PDZD2_2, O15018; [1]): 5.16
- pKd (SNTG1, Q9NSN8; [1]): 4.66
- pKd (MAGI2_3, Q86UL8; [1]): 4.54
- pKd (DLG4_2, P78352; [1]): 5.01
- pKd (HTRA3, P83110; [1]): below the threshold
- pKd (HTRA2, O43464; [1]): below the threshold
- pKd (SCRIB_3, Q14160; [1]): 3.92
- pKd (GRIP2_4, Q9C0E4; [1]): below the threshold
- pKd (LNX1_1, Q8TBB1; [1]): 4.06
- pKd (FRMPD2_1, Q68DX3; [1]): below the threshold
- pKd (Inadl_1, Q8NI35; [1]): below the threshold
- pKd (PDLIM1, O00151; [1]): below the threshold
- pKd (Inadl_6, Q8NI35; [1]): 3.88
- pKd (TJP2_1, Q9UDY2; [1]): below the threshold
- pKd (TX1BP3, O14907; [1]): 4.03
- pKd (LAP2, Q96RT1; [1]): 3.96
- pKd (TJP1_3, Q07157; [1]): below the threshold
- pKd (Inadl_9, Q8NI35; [1]): 3.73
- pKd (DLG3_1, Q92796; [1]): 4.23
- pKd (DLG4_3, P78352; [1]): below the threshold
- pKd (NHERF4_2, Q86UT5; [1]): below the threshold
- pKd (RAPGEF6, Q8TEU7; [1]): below the threshold
- pKd (TIAM2, Q8IVF5; [1]): below the threshold

B2: RTKN, Q9BST9 (peptide)
chain: QPRTWLQSPV
- pKd (FRMPD2_2, Q68DX3; [2]): below the threshold
- pKd (GOPC, Q9HD26; [2]): 4.07
- pKd (PCLO, Q9Y6V0; [2]): below the threshold
- pKd (IL16_4, Q14005; [2]): below the threshold
- pKd (LIN7B, Q9HAP6; [2]): below the threshold
- pKd (PDZD2_2, O15018; [2]): 4.71
- pKd (SNTG1, Q9NSN8; [2]): 3.52
- pKd (MAGI2_3, Q86UL8; [2]): below the threshold
- pKd (DLG4_2, P78352; [2]): 4.27
- pKd (HTRA3, P83110; [2]): below the threshold
- pKd (HTRA2, O43464; [2]): below the threshold
- pKd (SCRIB_3, Q14160; [2]): 3.67
- pKd (GRIP2_4, Q9C0E4; [2]): below the threshold
- pKd (LNX1_1, Q8TBB1; [2]): below the threshold
- pKd (FRMPD2_1, Q68DX3; [2]): below the threshold
- pKd (Inadl_1, Q8NI35; [2]): below the threshold
- pKd (PDLIM1, O00151; [2]): below the threshold
- pKd (Inadl_6, Q8NI35; [2]): below the threshold
- pKd (TJP2_1, Q9UDY2; [2]): below the threshold
- pKd (TX1BP3, O14907; [2]): 6.05
- pKd (LAP2, Q96RT1; [2]): 4.42
- pKd (TJP1_3, Q07157; [2]): below the threshold
- pKd (Inadl_9, Q8NI35; [2]): below the threshold
- pKd (DLG3_1, Q92796; [2]): below the threshold
- pKd (DLG4_3, P78352; [2]): 4.35
- pKd (NHERF4_2, Q86UT5; [2]): below the threshold
- pKd (RAPGEF6, Q8TEU7; [2]): below the threshold
- pKd (TIAM2, Q8IVF5; [2]): below the threshold

B3: CIB2, O75838 (peptide)
chain: DFLSTFHIRI
- pKd (FRMPD2_2, Q68DX3; [1]): below the threshold
- pKd (GOPC, Q9HD26; [1]): below the threshold
- pKd (PCLO, Q9Y6V0; [1]): below the threshold
- pKd (IL16_4, Q14005; [1]): below the threshold
- pKd (LIN7B, Q9HAP6; [1]): 3.67
- pKd (PDZD2_2, O15018; [1]): 3.71
- pKd (SNTG1, Q9NSN8; [1]): below the threshold
- pKd (MAGI2_3, Q86UL8; [1]): below the threshold
- pKd (DLG4_2, P78352; [1]): below the threshold
- pKd (HTRA3, P83110; [1]): below the threshold
- pKd (HTRA2, O43464; [1]): 3.5
- pKd (SCRIB_3, Q14160; [1]): 3.56
- pKd (GRIP2_4, Q9C0E4; [1]): below the threshold
- pKd (LNX1_1, Q8TBB1; [1]): below the threshold
- pKd (FRMPD2_1, Q68DX3; [1]): below the threshold
- pKd (Inadl_1, Q8NI35; [1]): 3.91
- pKd (PDLIM1, O00151; [1]): below the threshold
- pKd (Inadl_6, Q8NI35; [1]): below the threshold
- pKd (TJP2_1, Q9UDY2; [1]): below the threshold
- pKd (TX1BP3, O14907; [1]): below the threshold
- pKd (LAP2, Q96RT1; [1]): below the threshold
- pKd (TJP1_3, Q07157; [1]): below the threshold
- pKd (Inadl_9, Q8NI35; [1]): 3.66
- pKd (DLG3_1, Q92796; [1]): below the threshold
- pKd (DLG4_3, P78352; [1]): 3.5
- pKd (NHERF4_2, Q86UT5; [1]): below the threshold
- pKd (RAPGEF6, Q8TEU7; [1]): below the threshold
- pKd (TIAM2, Q8IVF5; [1]): 4.59

B4: FZD10, Q9ULW2 (peptide)
chain: EIPAQSPTCV
- pKd (FRMPD2_2, Q68DX3; [1]): 3.74
- pKd (GOPC, Q9HD26; [1]): 3.94
- pKd (PCLO, Q9Y6V0; [1]): 3.47
- pKd (IL16_4, Q14005; [1]): below the threshold
- pKd (LIN7B, Q9HAP6; [1]): below the threshold
- pKd (PDZD2_2, O15018; [1]): 4.49
- pKd (SNTG1, Q9NSN8; [1]): 3.83
- pKd (MAGI2_3, Q86UL8; [1]): below the threshold
- pKd (DLG4_2, P78352; [1]): 4.11
- pKd (HTRA3, P83110; [1]): 3.95
- pKd (HTRA2, O43464; [1]): 3.76
- pKd (SCRIB_3, Q14160; [1]): 3.99
- pKd (GRIP2_4, Q9C0E4; [1]): below the threshold
- pKd (LNX1_1, Q8TBB1; [1]): below the threshold
- pKd (FRMPD2_1, Q68DX3; [1]): 3.92
- pKd (Inadl_1, Q8NI35; [1]): 3.58
- pKd (PDLIM1, O00151; [1]): 3.68
- pKd (Inadl_6, Q8NI35; [1]): 3.7
- pKd (TJP2_1, Q9UDY2; [1]): 3.82
- pKd (TX1BP3, O14907; [1]): below the threshold
- pKd (LAP2, Q96RT1; [1]): 3.73
- pKd (TJP1_3, Q07157; [1]): 3.65
- pKd (Inadl_9, Q8NI35; [1]): 4.6
- pKd (DLG3_1, Q92796; [1]): 3.72
- pKd (DLG4_3, P78352; [1]): below the threshold
- pKd (NHERF4_2, Q86UT5; [1]): below the threshold
- pKd (RAPGEF6, Q8TEU7; [1]): below the threshold
- pKd (TIAM2, Q8IVF5; [1]): 3.7
